{"source": "patent US7193044B1", "about": "“Compounds and methods for regulating apoptosis, and methods of making and screening for compounds that regulate apoptosis” (Immunogen, Inc., priority 2000, dated 2007)", "key": {"HeLa cells": {"test_system": "HeLa cells", "experiment": "Fluorescence-based beta-galactosidase assay of BAD-induced cell death in transfected HeLa cells", "parameters": "species or system human", "settings": "SFM vs SFM+EGF, 12 hours", "procedure": "FIG. 12(B) is a graphic representation of the results of a β-galactosidase assay. HeLa cells were co-transfected with the β-galactosidase gene and either HA-BAD (“WT”), HA-BAD S155A (“S155A”), HA-BAD S112A/S136A (“S112A/S136A”) or HA-BAD S112A/S136A/S155A (“AAA”). Transfected cells were then cultured in serum-free medium (SFM) or SFM supplemented with EGF (SFM+EGF) for 12 hours. Cell lysates were prepared and BAD-induced cell death was measured by the loss of β-galactosidase activity in a fluorescence-based assay. Fluorescence was measured at 465 nm. Results shown are the average and standard deviation of triplicate transfections (this experiment was repeated two more times with similar results). Expression levels of HA-tagged BAD and BAD mutants in transfected cell lysates were detected by anti-HA western blot analysis: HA-BAD (“WT”), HA-BAD S155A (“A”), HA-BAD S112A/S136A (“AA”), and HA-BAD S112A/S136A/S155A (“AAA”).\nFIG. 12(C) is a graphic representation of the results of a β-galactosidase assay. HeLa cells were co-transfected with the β-galactosidase gene and either an empty vector (“CTL”), wild-type BAD (“WT”), the BAD S155A mutant (“S155A”) or the BAD S155D mutant (“S155D”). Cell lysates were prepared and BAD-induced cell death was measured by the loss of β-galactosidase activity in a fluorescence-based assay. Fluorescence was measured at 465 nm. Results shown are the average and standard deviation of triplicate transfections (this experiment was repeated two more times with similar results).\nHeLa cells were co-transfected with the β-galactosidase gene and either wild-type BAD, BAD S155A, BAD S112A/S136A or BAD S112A/S136A/S155A. […] Cell lysates were prepared and BAD-induced cell death was measured by the loss of β-galactosidase activity in a fluorescence-based assay. […]\nTo measure β-gal activity, HeLa cells were plated in 12-well plates at 5×10^4 cells/well one day prior to transfection. […] Beta-gal activity was measured in extracts using a fluorogenic substrate (MUG, BIO-RAD FluorAce™ β-gal Reporter Assay, #170–3150). […]"}, "[1]": {"test_system": "BAD Ser155 phosphorylation in HeLa cells", "experiment": "BAD phosphorylation in HeLa cells (western blot band-shift / anti-phospho-Ser155 antibody)", "assay_type": "cell-based, human", "procedure": "A mammalian expression vector encoding mutant HA-BAD S155A, derived from the shorter murine BAD of SEQ ID NO:3, was constructed. HA-BAD S155A has an amino acid sequence wherein the serine at a position corresponding to Ser155 is substituted with alanine. A western blot was performed on WCL prepared from cells expressing the shorter murine BAD (SEQ ID NO:3), HA-BAD S112A, HA-BAD S136A, or HA-BAD S155A, and probed with anti-HA antibody.\nA western blot analysis, probed with anti-HA antibody, was performed on lysates produced from the Forskolin treated and untreated (control) cells to determine whether Forskolin could induce the phosphorylation BAD or mutant BAD.\nHeLa cells transiently expressing HA-BAD, HA-BAD S155A, HA-BAD S112A/S136A, or HA-BAD S112A/S136A/S155A were treated with Forskolin or a buffer control.\nThe HA-BAD S112A/S136A double mutant was transiently expressed in HeLa cells, and transfected cell cultures were treated with each of the GPCR ligands, individually and as a group. A western blot analysis, probed with anti-HA antibody, was performed on lysates produced from the treated and untreated (negative control) cells. […] Forskolin (FK) and no treatment (−) were positive and negative controls, respectively (FIG. 6(a), […], respectively).\nNon-transfected HeLa cells were treated with Forskolin or L-epinephrine, followed by western blot analysis of cell lysates using anti-BAD antibodies.\nTransformants were treated with L-epinephrine, then lysed and subjected to anti-HA western blot analysis.\nTo further test whether phosphorylation of Ser155 is dependent on the PI 3-kinase/Akt pathway, HeLa cells were transfected with the mutant HA-BAD S155A and pretreated with Wortmannin, an inhibitor of PI 3-kinase. These cells were then stimulated with epidermal growth factor (EGF), lysed and analyzed by western blot analysis.\nFor immunoprecipitation of all HA-BAD species, 1 μg of the anti-HA antibody was added to the cell lysates, and incubated at 4° C. for one hour. Protein G agarose (Pierce) was then added (50 μl/fraction of 50% slurry) and followed by a one hour incubation at 4° C. Beads were washed with RIPA buffer, boiled in loading buffer (2% SDS, 10% glycerol, 5% β-ME, 60 mM Tris, pH 6.8, 0.002% Bromophenol Blue) and loaded onto polyacrylamide gels. After electrophoresis, proteins were transferred to nitrocellulose membranes, and blots blocked in western wash buffer (40 mM Tris, pH 8.0, 150 mM NaCl, 0.2% NP-40) with 5% BSA for one hour at room temperature. Blots were incubated with primary antibody diluted in western wash buffer with 3% BSA at room temperature for 1–2 hours, washed with western wash buffer and incubated with secondary HRP-coupled antibody diluted in western wash buffer with 1.5% BSA, and washed extensively. Polypeptides were detected with the ECL chemiluminescence according to the manufacturers instructions (Amersham)."}}, "data": [{"molecule": "BAD S155A: mutant of shorter murine BAD, serine corresponding to Ser155 substituted with alanine; HA- or GST-tagged (protein, left off: small tags and cut ends, mutant of shorter murine BAD, serine corresponding to Ser155 substituted with alanine; HA- or GST-tagged) MFQIPEFEPSEQEDASATDRGLGPSLTEDQPGPYLAPGLLGSNIHQQGRAATNSHHGGAGAMETRSRHSSYPAGTEEDEGMEEELSPFRGRSRSAPPNLWAAQRYGRELRRMADEFEGSFKGLPRPKSAGTATQMRQSAGWTRIIQSWWDRNLGKGGSTPSQ", "values": [{"measurement": "effect of EGF stimulation on pro-apoptotic activity of the BAD mutant", "setting": "HeLa cells", "result": "does not eliminate the protective effect of EGF"}, {"measurement": "band-shift (phosphorylation) of expressed BAD construct in response to L-epinephrine", "setting": "[1]; HeLa cells", "result": "significantly reduced"}, {"measurement": "reactivity with anti-phospho-Ser155 specific BAD antibody", "setting": "[1]; HeLa cells treated with Forskolin", "result": "failure of the anti-phospho-Ser155 specific BAD antibody to react"}, {"measurement": "growth factor (EGF)- and serum (FCS)-induced phosphorylation of expressed BAD mutant", "setting": "[1]; HeLa cells, anti-HA western blot", "result": "dramatically reduced"}, {"measurement": "phosphorylation of expressed BAD mutant", "setting": "[1]; HeLa cells, anti-HA western blot, compared to single mutation of Ser112 or Ser136", "result": "dramatically reduced the phosphorylation of the murine BAD in HeLa cells"}, {"measurement": "band-shift (phosphorylation) of expressed BAD construct in response to L-epinephrine", "setting": "[1]; HeLa cells, listed as HA-BAD S155A", "result": "limited response"}]}]}
